Test results published in patent US20240400689A1.
Several values for one entry are separate records, joined by “and”; a condition that tells them apart may be missing. Equal values may be shown once.

Assays:
[1] = target: human CD276 protein (human) (UniProt Q5ZPR3); experiment: FACS on SKOV3 cells
[2] = target: human CD276 protein (human) (UniProt Q5ZPR3); experiment: cell-based or functional assay

Chain of human CD276 protein (human) (Q5ZPR3 29-534): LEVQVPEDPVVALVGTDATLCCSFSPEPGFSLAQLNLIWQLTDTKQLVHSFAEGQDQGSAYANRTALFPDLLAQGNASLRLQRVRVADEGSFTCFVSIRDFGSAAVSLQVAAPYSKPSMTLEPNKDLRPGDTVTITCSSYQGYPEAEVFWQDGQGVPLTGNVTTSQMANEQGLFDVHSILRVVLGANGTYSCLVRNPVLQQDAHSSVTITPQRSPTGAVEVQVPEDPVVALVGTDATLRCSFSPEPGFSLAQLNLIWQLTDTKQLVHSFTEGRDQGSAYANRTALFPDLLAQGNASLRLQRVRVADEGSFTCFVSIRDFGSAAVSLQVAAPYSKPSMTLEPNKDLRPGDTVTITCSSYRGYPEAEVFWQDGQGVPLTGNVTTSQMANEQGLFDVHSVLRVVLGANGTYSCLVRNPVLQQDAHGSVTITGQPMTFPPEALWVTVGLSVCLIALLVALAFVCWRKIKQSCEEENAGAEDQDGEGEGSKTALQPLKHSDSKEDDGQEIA

MFI (Max) [1]	EC50 of antibody induced CDC effect [2]	Substance	Top cytotoxicity (%), CDC [2]
115		igG (antibody)	
	8.91 nM and 9.64 nM	MGA271-WT Fc (antibody)	19.6% and 19.8%
